Assay [1] deals with T1, Epstein-Barr virus latent membrane protein 2 (LMP2) peptide on HLA-A24 (human).
T1 peptide: SSCSSCPLSK
Kind of assay: killing.

Assay [2] addresses T2, Epstein-Barr virus latent membrane protein 2 (LMP2) peptide on HLA-A11 (human).
T2 peptide: SSCSSCPLSK
The assay can be described thus: killing.

Residue numbers refer to the chain shown, from its start.

Consider two molecules from US20220056101A1 (published 2022).

B1: TCR-NPC-A11-003 (TCR, V domains shown)
Valpha: GIQVEQSPPDLILQEGANSTLRCNFSDSVNNLQWFHQNPWGQLINLFYIPSGTKQNGRLSATTVATERYSLLYISSSQTTDSGVYFCAVVNNNDMRFGAGTRLTVKP
Vbeta: DTEVTQTPKHLVMGMTNKKSLKCEQHMGHRAMYWYKQKAKKPPELMFVYSYEKLSINESVPSRFSPECPNSSLLNLHLHALQPEDSALYLCASSPGRWYEQFFGPGTRLTVL
As to B1, the binding result in assay [1] is on record as “no recognition”; in assay [2] it was “recognises”.

B2: TCR-NPC-A11-125 (TCR, V domains shown)
Valpha: B1 Valpha with V90L
Vbeta: B1 Vbeta with P95Q, Q101A, P105Q, L112V
On to B2, for which the binding result in assay [1] is on record as “no recognition”; in assay [2] it was “recognises”.
